The text below walks through data of PMC6017737, “Functional Impact of the N-terminal Arm of Proline Dehydrogenase from Thermus thermophilus” (Molecules : A Journal of Synthetic Chemistry and Natural …, 2018).

One series concerns the target T1, MBP-TtProDH EE (Thermus thermophilus, UniProt Q72IB8, F10E/L12E, form not given).
T1 construct: gene TT_C1214; full-length, Phe10 and Leu12 replaced by Glu; N-terminal MBP tag kept; E. coli TOP10; tetramer; FAD
Nature of the series: residual proline:DCPIP activity after incubation; flavin absorption spectra. Particulars: covalent; suicide inhibitor, flavin N(5)-Lys99 adduct; 40 µM enzyme, pH 7.4, 25 °C. It counts as biochemical.

The target of series [1] is T2, MBP-TtProDH ΔAB (Thermus thermophilus, UniProt Q72IB8).
T2 construct: gene TT_C1214; lacks N-terminal helices αA and αB; start 29 (KGLVRRYVAG...) derived from printed primer and V32/Y35/V36 numbering; N-terminal MBP tag kept; E. coli TOP10; tetramer; FAD
Described as above. It counts as biochemical. Particulars: covalent; suicide inhibitor, flavin N(5)-Lys99 adduct; 40 µM enzyme, pH 7.4, 25 °C.

In a further series the target is T3, MBP-TtProDH ΔA (Thermus thermophilus, UniProt Q72IB8).
T3 construct: gene TT_C1214; lacks N-terminal helix αA; start 19 (QVERLIKHRAKG...) derived from printed primer; N-terminal MBP tag kept; E. coli TOP10; tetramer; FAD
The description is as above. Format: biochemical. Particulars: covalent; suicide inhibitor, flavin N(5)-Lys99 adduct; 40 µM enzyme, pH 7.4, 25 °C.

In series [2] the target is T4, MBP-TtProDH ΔAB (Thermus thermophilus, UniProt Q72IB8, V36D, form not given).
T4 construct: gene TT_C1214

Series [3] concerns the target T5, MBP-TtProDH ΔAB (Thermus thermophilus, UniProt Q72IB8, V32D, form not given).
T5 construct: gene TT_C1214

Series [4] deals with the molecule itself. Nature of the series: SEC; analytical gel filtration on Superdex 200 of each MBP-fused variant alone, as described in ref. 19.
Series [5] concerns the molecule itself. Nature of the series: native MS; nanoflow ESI-MS of the native MBP-fused variants; source backing pressure 7.8 mbar, cone voltage 100-150 V.
Series [6] concerns the molecule itself. Nature of the series: SEC; 20 µM EE and 20 µM ΔABC mixed in 50 mM sodium phosphate pH 7.4, incubated at room temperature overnight, then Superdex 200 gel filtration; SDS-PAGE of the fractions. In general terms: SEC sorts molecules by how far they enter the pores of the column.

Consider `C#CCNCC(=O)O` [N-propargylglycine], for which the “% residual activity after 90 min at 2.5 mM” value at MBP-TtProDH EE is ~ 13%; on MBP-TtProDH ΔAB [1], “For ΔA and ΔAB the activity loss is even more pronounced”; at MBP-TtProDH ΔA, “For ΔA and ΔAB the activity loss is even more pronounced”; on MBP-TtProDH ΔAB [2], 63%; at MBP-TtProDH ΔAB [3], 30%.

B1: MBP-TtProDH ΔA (MBP-TtProDH lacking helix αA) (domain or fragment, Thermus thermophilus)
chain: QVERLIKHRAKGLVRRYVAGETLEEALKAAEALEREGVHAILDLLGEMVRTEEEARAFQRGLLELVWALAGKPWPKYISLKLTQLGLDLSEDLALALLREVLREAEPRGVFVRLDMEDSPRVEATLRLYRALREEGFSQVGIVLQSYLYRTEKDLLDLLPYRPNLRLVKGAYREPKEVAFPDKRLIDAEYLHLGKLALKEGLYVAFATHDPRIIAELKRYTEAMGIPRSRFEFQFLYGVRPEEQRRLAREGYTVRAYVPYGRDWYPYLTRRIAERPENLLLVLRSLVSGLE
notes: Proline dehydrogenase (TtProDH), Thermus thermophilus, lacking helix αA; C-terminal tail of TtProDH (part of helix α8), residues 288-309 as printed; Cloned with EcoRI and HindIII into pBAD-MBP; not shown: MBP, N-terminal, kept
A word on the stoichiometry N: it is the number of molecules, sites or subunits per partner or assembly. On to B1, for which the “stoichiometry N” value in series [4] came out at 4; in series [5] it was 2.

B2: MBP-TtProDH ΔABC (MBP-TtProDH lacking helices αA, αB and αC) (domain or fragment, Thermus thermophilus, UniProt Q72IB8 38-287, looked up)
chain: GETLEEALKAAEALEREGVHAILDLLGEMVRTEEEARAFQRGLLELVWALAGKPWPKYISLKLTQLGLDLSEDLALALLREVLREAEPRGVFVRLDMEDSPRVEATLRLYRALREEGFSQVGIVLQSYLYRTEKDLLDLLPYRPNLRLVKGAYREPKEVAFPDKRLIDAEYLHLGKLALKEGLYVAFATHDPRIIAELKRYTEAMGIPRSRFEFQFLYGVRPEEQRRLAREGYTVRAYVPYGRDWYPYLT
notes: Proline dehydrogenase (TtProDH), Thermus thermophilus, lacking the whole N-terminal arm; PDB 5M42)'; the construct encodes up to residue 309, but the observed species is C-terminally truncated, cleaved before Arg288 (residues 288-309 removed); The difference of the predicted masses of ΔAB and ΔABC (75.5 against 74.4 kDa) fits a start at G38; not shown: MBP, N-terminal, kept
In the case of B2, the “stoichiometry N” value amounted to 2 in series [4] and 4 in series [5].

B3: MBP-TtProDH ΔAB (MBP-TtProDH lacking helices αA and αB) (domain or fragment, Thermus thermophilus)
chain: KGLVRRYVAGETLEEALKAAEALEREGVHAILDLLGEMVRTEEEARAFQRGLLELVWALAGKPWPKYISLKLTQLGLDLSEDLALALLREVLREAEPRGVFVRLDMEDSPRVEATLRLYRALREEGFSQVGIVLQSYLYRTEKDLLDLLPYRPNLRLVKGAYREPKEVAFPDKRLIDAEYLHLGKLALKEGLYVAFATHDPRIIAELKRYTEAMGIPRSRFEFQFLYGVRPEEQRRLAREGYTVRAYVPYGRDWYPYLTRRIAERPENLLLVLRSLVSGLE
notes: Proline dehydrogenase (TtProDH), Thermus thermophilus, lacking helices αA and αB; C-terminal tail of TtProDH (part of helix α8), residues 288-309 as printed; not shown: MBP, N-terminal, kept
In the case of B3, the “stoichiometry N” value in series [4] came to 4; in series [5] it was 2.

B4: MBP-TtProDH ΔAB V32D (domain or fragment, Thermus thermophilus)
chain: KGLDRRYVAGETLEEALKAAEALEREGVHAILDLLGEMVRTEEEARAFQRGLLELVWALAGKPWPKYISLKLTQLGLDLSEDLALALLREVLREAEPRGVFVRLDMEDSPRVEATLRLYRALREEGFSQVGIVLQSYLYRTEKDLLDLLPYRPNLRLVKGAYREPKEVAFPDKRLIDAEYLHLGKLALKEGLYVAFATHDPRIIAELKRYTEAMGIPRSRFEFQFLYGVRPEEQRRLAREGYTVRAYVPYGRDWYPYLTRRIAERPENLLLVLRSLVSGLE
notes: Proline dehydrogenase (TtProDH), Thermus thermophilus, lacking helices αA and αB, with V32D in helix αC; C-terminal tail of TtProDH (part of helix α8), residues 288-309 as printed; lacking in a part of the preparation; The preparation is a mixture: partially intact and partially cleaved before R288 (two subunit masses, 73.0 and 75.5 kDa); Mainly dimers by SEC, tetramers and dimers by …
In the case of B4, the “stoichiometry N” value in series [4] came out at 2; in series [5] it was 4.

B5: MBP-TtProDH ΔAB V36D (domain or fragment, Thermus thermophilus)
chain: KGLVRRYDAGETLEEALKAAEALEREGVHAILDLLGEMVRTEEEARAFQRGLLELVWALAGKPWPKYISLKLTQLGLDLSEDLALALLREVLREAEPRGVFVRLDMEDSPRVEATLRLYRALREEGFSQVGIVLQSYLYRTEKDLLDLLPYRPNLRLVKGAYREPKEVAFPDKRLIDAEYLHLGKLALKEGLYVAFATHDPRIIAELKRYTEAMGIPRSRFEFQFLYGVRPEEQRRLAREGYTVRAYVPYGRDWYPYLTRRIAERPENLLLVLRSLVSGLE
notes: Proline dehydrogenase (TtProDH), Thermus thermophilus, lacking helices αA and αB, with V36D in helix αC; C-terminal tail of TtProDH (part of helix α8), residues 288-309 as printed; lacking in a part of the preparation; The preparation is a mixture: partially intact and partially cleaved before R288 (two subunit masses, 73.0 and 75.5 kDa); Mainly dimers by SEC, tetramers and dimers by …
Take B5: the results for the “stoichiometry N” value in series [4] and in series [5] were 2 and 4, respectively.

B6: MBP-TtProDH ΔAB Y35F (domain or fragment, Thermus thermophilus)
chain: KGLVRRFVAGETLEEALKAAEALEREGVHAILDLLGEMVRTEEEARAFQRGLLELVWALAGKPWPKYISLKLTQLGLDLSEDLALALLREVLREAEPRGVFVRLDMEDSPRVEATLRLYRALREEGFSQVGIVLQSYLYRTEKDLLDLLPYRPNLRLVKGAYREPKEVAFPDKRLIDAEYLHLGKLALKEGLYVAFATHDPRIIAELKRYTEAMGIPRSRFEFQFLYGVRPEEQRRLAREGYTVRAYVPYGRDWYPYLTRRIAERPENLLLVLRSLVSGLE
notes: Proline dehydrogenase (TtProDH), Thermus thermophilus, lacking helices αA and αB, with Y35F in helix αC; C-terminal tail of TtProDH (part of helix α8), residues 288-309 as printed; Identical subunits by denaturing MS; not shown: MBP, N-terminal, kept
As for B6, in series [4], the “stoichiometry N” value was determined as 4.

B7: MBP-TtProDH variant EE (MBP-TtProDH with Phe10 and Leu12 replaced by Glu) (enzyme, Thermus thermophilus)
chain: MNLDLAYRSEVEGVAGHPQVERLIKHRAKGLVRRYVAGETLEEALKAAEALEREGVHAILDLLGEMVRTEEEARAFQRGLLELVWALAGKPWPKYISLKLTQLGLDLSEDLALALLREVLREAEPRGVFVRLDMEDSPRVEATLRLYRALREEGFSQVGIVLQSYLYRTEKDLLDLLPYRPNLRLVKGAYREPKEVAFPDKRLIDAEYLHLGKLALKEGLYVAFATHDPRIIAELKRYTEAMGIPRSRFEFQFLYGVRPEEQRRLAREGYTVRAYVPYGRDWYPYLTRRIAERPENLLLVLRSLVSGLE
notes: Proline dehydrogenase (TtProDH), Thermus thermophilus, from its start to residue 287; C-terminal tail of TtProDH (part of helix α8), residues 288-309 as printed; The last residues of the printed tail (LE) may stem from the construct and not from the natural protein (my surmise); also called MBP-TtProDH EE; not shown: MBP, N-terminal, kept
In the case of B7, in series [6], the “stoichiometry N” value worked out at 4.
